Values quoted from earlier work, collected in patent US20260217837A1, “FGFR3 BINDING MOLECULES AND METHODS OF USE THEREOF” (Regeneron Pharmaceuticals, Inc., priority 2023, published 2026).
Read-outs that look alike come from different tables or passages of the source.

B1: VH: SEQ ID NO: 7 of PCT Publication No: WO 2010/048026 A2: unnamed anti-FGFR3 Ig-like domain 2 antibody, VH SEQ ID NO: 7 / VL SEQ ID NO: 8 of WO 2010/048026 A2; SEQ ID NO: 61/62 (antibody, V domains shown)
VH: EVQLVQSGAEVKKPGASVKVSCKASGYMFTSYGISWVRQAPGQGLEWMGWVSTYNGDTNYAQKFQGRVTVTTDTSTSTAYMELRSLRSEDTAVYYCARVLGYYDSIDGYYYGMDVWGQGTTVTVSS
VL: QSVLTQPPSLSVAPGKTATFTCGGNNIGDKSVHWYRQKPGQAPVLVMYLDTERPSGIPERMSGSNFGNTATLTITRVEAEDEADYYCQVWDSGSDHVVFGGGTKLTVLG
B2: 20B4: anti-FGFR3 Igl 3 antibody of WO 2010/002862 A2; SEQ ID NO: 57/58 (antibody, V domains shown)
VH: EIQLQQSGPELVKPGASVKVSCKASGYSLTDYNMYWVKQSHGKSLEWIGYIDPYNGGTSYNQKFKGKATLTVDKSSSTAFMHLNSLTSEDSAVYYCARSLGPDFDYWGQGTTLTVSS
VL: QIVLTQSPAIMSASPGEKVTMTCSASSSVNYMHWYQQKSGTSPKRWIYDTSKLASGVPARFSGSGSGTSYSLTISSMEAEDTATYYCQQWNSNPLTFGAGTKLELK
B3: 4E7(7D12): anti-FGFR3 Igl 3 antibody of WO 2010/002862 A2; SEQ ID NO: 56/54 (antibody, V domains shown)
VH: EIQLQQSGPELVKPGASVKVSCKASGYAFTSYNMYWVKQSHGKSLEWIGYIDPYNGGTRYNQKFKGKATLTVDKSSSTAYMHLNSLTSEDSAVYYCAREGGNYEAWFAYWGQGTLVTVSA
VL: QIVLTQSPALMSASPGEKVTMTCSASSSVSYMYWYQQKPRSSPKPWIYLTSNLASGVPARFSGSGSGTSYSLTISSMEAEDAATYYCQQWSSNPLTFGAGTKLELK
B4: Hu15D8: anti-FGFR3 Igl 3 antibody of WO 2010/002862 A2; SEQ ID NO: 59/60 (antibody, V domains shown)
VH: EVQLVQSGAEVKKPGESLKISCKGSGYSFTSYNMYWVRQMPGKGLEWMGYIDPYNGGTSYNQKFKGKATLTVDKSISTAYLQWSSLKASDTAMYYCAREGGNYEAWFAYWGQGTLVTVSS
VL: DIQLTQSPSSLSASVGDRVTITCSASSSVSYMYWFQQKPGKAPKPLIYLTSYLASGVPSRFSGSGSGTDFTLTISSLQPEDFATYYCQQWSSYPLTFGGGTKVEIK
B5: 184.6.1.N54S: anti-FGFR3 Ig-like domain 3 antibody of WO 2010/111367 A1; SEQ ID NO: 63/64 (antibody, V domains shown)
VH: EVQLVESGGGLVQPGGSLRLSCAASGFTFTSTGISWVRQAPGKGLEWVGRIYPTSGSTNYADSVKGRFTISADTSKNTAYLQMNSLRAEDTAVYYCARARTYGIYDLYVDYTEYVMDYWGQGTLV
VL: DIQMTQSPSSLSASVGDRVTITCRASQDVDTSLAWYQQKPGKAPKLLIYSASFLYSGVPSRFSGSGSGTDFTLTISSLQPEDFATYYCQQSTGHPQTFGQGTKVEIKR
B6: 184.6.58: anti-FGFR3 Ig-like domain 3 antibody of WO 2010/111367 A1 (aka R3Mab); SEQ ID NO: 65/66 (antibody, V domains shown)
VH: EVQLVESGGGLVQPGGSLRLSCAASGFTFTSTGISWVRQAPGKGLEWVARIYPTNGSTNYADSVKGRFTISADTSKNTAYLQMNSLRAEDTAVYYCARARTYGIYDLYVDYTEYVMDYWGQGTLV
VL: DIQMTQSPSSLSASVGDRVTITCRASQDVDISLAWYQQKPGKAPKLLIYSASFLYSGVPSRFSGSGSGTDFTLTISSLQPEDFATYYCQQGAGNPYTFGQGTKVEIKR
B7: 184.6.1.NS D30E: anti-FGFR3 Ig-like domain 3 antibody of WO 2010/111367 A1; SEQ ID NO: 63/69 (antibody, V domains shown)
VH: EVQLVESGGGLVQPGGSLRLSCAASGFTFTSTGISWVRQAPGKGLEWVGRIYPTSGSTNYADSVKGRFTISADTSKNTAYLQMNSLRAEDTAVYYCARARTYGIYDLYVDYTEYVMDYWGQGTLV
VL: DIQMTQSPSSLSASVGDRVTITCRASQDVETSLAWYQQKPGKAPKLLIYSASFLYSGVPSRFSGSGSGTDFTLTISSLQPEDFATYYCQQSTGHPQTFGQGTKVEIKR
B8: 184.6.62: anti-FGFR3 Ig-like domain 3 antibody of WO 2010/111367 A1; SEQ ID NO: 67/68 (antibody, V domains shown)
VH: EVQLVESGGGLVQPGGSLRLSCAASGFTFSTTGISWVRQAPGKGLEWVARIYPLYGSTHYADSVKGRFTISADTSKNTAYLQMNSLRAEDTAVYYCARARTYGIYDLYVDYTEYVMDYWGQGTLV
VL: DIQMTQSPSSLSASVGDRVTITCRASQDVSTAVAWYQQKPGKAPKLLIYSASFLYSGVPSRFSGSGSGTDFTLTISSLQPEDFATYYCQQTYTTSLTFGQGTKVEIKR
B9: B-701: anti-FGFR3 antibody of WO 2016/134234 A1; SEQ ID NO: 70/71 (antibody, V domains shown)
VH: EVQLVESGGGLVQPGGSLRLSCAASGFTFTSTGISWVRQAPGKGLEWVGRIYPTSGSTNYADSVKGRFTISADTSKNTAYLQMNSLRAEDTAVYYCARTYGIYDLYVDYTEYVMDYWGQGTLV
VL: DIQMTQSPSSLSASVGDRVTITCRASQDVDTSLAWYKQKPGKAPKLLIYSASFLYSGVPSRFSGSGSGTDFTLTISSLQPEDFATYYCQQSTGHPQTFGQGTKVEIKR
B10: MS-Pro-59: anti-FGFR3 Ig-like domain 3 antibody of WO 2002/102972 A2; SEQ ID NO: 28/29 (antibody, V domains shown)
VH: QVQLQQSGPGLVKPSQTLSLTCAISGDSVSSNSAAWNWIRQSPGRGLEWLGRTYYRSKWYNDYAVSVKSRITINDTSKNQFSLQLNSVTPEDTAVYYCARSYYPDFDYWGQGTVTVSS
VL: DIELTQPPSVSVAPGQTARISCSGDALGDKYASWYQQKPGQAPVLVIYDDSDRPSGIPERFSGSNSGNTATLTISGTQAEDEADYYCQSYDGPDLWVFGGGTKLTVLGQ
B11: KC18: anti-FGFR3 IIIb and IIIc antibody of WO 2022/040560 A1; SEQ ID NO: 72/73 (antibody, V domains shown)
VH: QVQLQQSGAELVRPGASVTLSCKASGDTFTDFEIHWVKQTPVHGLEWIGDIDPETGGTAYNQKFRGRAMLTADRSSSTAYMELRSLTSEDSAVYYCTRTYDGYPYAMDYWGQGTSVTVSS
VL: DIVMSQSPSSLAVSVGEKVTMSCKSSQSLLYSNNQKNYLAWYQQKPGQSPKLLIYWASTRESGVPDRFTGSGSGTDFTLTISSVKAEDLAVYYCQQYYSYRTFGGGTKLEIK

Test system: FGFR3
[1] = Table T-1, exemplary FGFR3 parental antibodies of cited publications
[2] = Exemplary FGFR3 D3 binding sequences, antibodies of cited PCT publications

| Molecule | Activity [1] | Activity [2] |
| --- | --- | --- |
| B1 | Antagonistic |  |
| B2 | Antagonistic | Antagonistic |
| B3 | Antagonistic | Antagonistic |
| B4 | Antagonistic | Antagonistic |
| B5 | Antagonistic | Antagonistic |
| B6 | Antagonistic | Antagonistic |
| B7 | Antagonistic | Antagonistic |
| B8 | Antagonistic | Antagonistic |
| B9 | Antagonistic |  |
| B10 | Antagonistic | Antagonistic |
| B11 | Antagonistic | Antagonistic |
